Molecular target: rabbit IgG

“TEM-PA hybrid protein where one repeated domain of the protein A was internalised (from UniProt P62593 24-195; P38507 212-269; P62593 196-286)” gave an amount of immobilised rabbit IgG that can be detected of 10 to 100 ng.
